# What was measured:
# Assay in all cases: Crosslinking/co-immunoprecipitation/mass spectrometry (TMT quantitative proteomics) to identify irisin receptors
# Format in all cases: binding
# [1] = target: T1, MLO-Y4 cell surface proteins (Mus musculus, UniProt P48997); conditions: co-precipitated protein Ivl (INVO_MOUSE)
# T1 construct: endogenous in cells; host or cells: MLO-Y4
# T1 sequence (P48997 1-467): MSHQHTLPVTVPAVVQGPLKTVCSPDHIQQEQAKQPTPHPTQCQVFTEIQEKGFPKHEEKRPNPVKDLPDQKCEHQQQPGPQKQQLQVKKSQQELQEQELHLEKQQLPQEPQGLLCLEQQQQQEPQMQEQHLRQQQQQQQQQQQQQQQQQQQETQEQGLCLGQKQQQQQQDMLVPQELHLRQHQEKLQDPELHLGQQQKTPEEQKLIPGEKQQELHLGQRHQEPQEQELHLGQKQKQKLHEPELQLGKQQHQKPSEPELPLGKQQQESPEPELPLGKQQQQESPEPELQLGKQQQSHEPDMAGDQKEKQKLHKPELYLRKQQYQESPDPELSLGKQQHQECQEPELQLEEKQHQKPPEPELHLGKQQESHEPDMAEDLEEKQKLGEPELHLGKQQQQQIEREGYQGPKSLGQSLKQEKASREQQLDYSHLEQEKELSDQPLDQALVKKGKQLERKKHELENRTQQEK
# Summary of the method: (§1)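 Relative protein abundance came from 6-plex TMT MS3 quantitation on an Orbitrap Fusion Lumos, after in-gel trypsin digestion of Coomassie-stained SDS-PAGE lanes. Input was a Ni-NTA pulldown (250 mM imidazole elution) of lysates from murine MLO-Y4 cells. These cells were treated on ice with His-tagged irisin or adipsin (10 nM, 20 min) in serum-free medium, then crosslinked with 1.5 mM DTSSP for 30 min.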
# [2] = target: T2, MLO-Y4 cell surface proteins (Mus musculus, UniProt P62737); conditions: co-precipitated protein Acta2 (ACTA_MOUSE)
# T2 construct: endogenous in cells; host or cells: MLO-Y4
# Summary of the method: as §1
# [3] = target: T3, MLO-Y4 cell surface proteins (Mus musculus, UniProt Q6ZQ93); conditions: co-precipitated protein Usp34 (UBP34_MOUSE)
# T3 construct: endogenous in cells; host or cells: MLO-Y4
# Summary of the method: as §1
# T3 sequence (Q6ZQ93 whole entry): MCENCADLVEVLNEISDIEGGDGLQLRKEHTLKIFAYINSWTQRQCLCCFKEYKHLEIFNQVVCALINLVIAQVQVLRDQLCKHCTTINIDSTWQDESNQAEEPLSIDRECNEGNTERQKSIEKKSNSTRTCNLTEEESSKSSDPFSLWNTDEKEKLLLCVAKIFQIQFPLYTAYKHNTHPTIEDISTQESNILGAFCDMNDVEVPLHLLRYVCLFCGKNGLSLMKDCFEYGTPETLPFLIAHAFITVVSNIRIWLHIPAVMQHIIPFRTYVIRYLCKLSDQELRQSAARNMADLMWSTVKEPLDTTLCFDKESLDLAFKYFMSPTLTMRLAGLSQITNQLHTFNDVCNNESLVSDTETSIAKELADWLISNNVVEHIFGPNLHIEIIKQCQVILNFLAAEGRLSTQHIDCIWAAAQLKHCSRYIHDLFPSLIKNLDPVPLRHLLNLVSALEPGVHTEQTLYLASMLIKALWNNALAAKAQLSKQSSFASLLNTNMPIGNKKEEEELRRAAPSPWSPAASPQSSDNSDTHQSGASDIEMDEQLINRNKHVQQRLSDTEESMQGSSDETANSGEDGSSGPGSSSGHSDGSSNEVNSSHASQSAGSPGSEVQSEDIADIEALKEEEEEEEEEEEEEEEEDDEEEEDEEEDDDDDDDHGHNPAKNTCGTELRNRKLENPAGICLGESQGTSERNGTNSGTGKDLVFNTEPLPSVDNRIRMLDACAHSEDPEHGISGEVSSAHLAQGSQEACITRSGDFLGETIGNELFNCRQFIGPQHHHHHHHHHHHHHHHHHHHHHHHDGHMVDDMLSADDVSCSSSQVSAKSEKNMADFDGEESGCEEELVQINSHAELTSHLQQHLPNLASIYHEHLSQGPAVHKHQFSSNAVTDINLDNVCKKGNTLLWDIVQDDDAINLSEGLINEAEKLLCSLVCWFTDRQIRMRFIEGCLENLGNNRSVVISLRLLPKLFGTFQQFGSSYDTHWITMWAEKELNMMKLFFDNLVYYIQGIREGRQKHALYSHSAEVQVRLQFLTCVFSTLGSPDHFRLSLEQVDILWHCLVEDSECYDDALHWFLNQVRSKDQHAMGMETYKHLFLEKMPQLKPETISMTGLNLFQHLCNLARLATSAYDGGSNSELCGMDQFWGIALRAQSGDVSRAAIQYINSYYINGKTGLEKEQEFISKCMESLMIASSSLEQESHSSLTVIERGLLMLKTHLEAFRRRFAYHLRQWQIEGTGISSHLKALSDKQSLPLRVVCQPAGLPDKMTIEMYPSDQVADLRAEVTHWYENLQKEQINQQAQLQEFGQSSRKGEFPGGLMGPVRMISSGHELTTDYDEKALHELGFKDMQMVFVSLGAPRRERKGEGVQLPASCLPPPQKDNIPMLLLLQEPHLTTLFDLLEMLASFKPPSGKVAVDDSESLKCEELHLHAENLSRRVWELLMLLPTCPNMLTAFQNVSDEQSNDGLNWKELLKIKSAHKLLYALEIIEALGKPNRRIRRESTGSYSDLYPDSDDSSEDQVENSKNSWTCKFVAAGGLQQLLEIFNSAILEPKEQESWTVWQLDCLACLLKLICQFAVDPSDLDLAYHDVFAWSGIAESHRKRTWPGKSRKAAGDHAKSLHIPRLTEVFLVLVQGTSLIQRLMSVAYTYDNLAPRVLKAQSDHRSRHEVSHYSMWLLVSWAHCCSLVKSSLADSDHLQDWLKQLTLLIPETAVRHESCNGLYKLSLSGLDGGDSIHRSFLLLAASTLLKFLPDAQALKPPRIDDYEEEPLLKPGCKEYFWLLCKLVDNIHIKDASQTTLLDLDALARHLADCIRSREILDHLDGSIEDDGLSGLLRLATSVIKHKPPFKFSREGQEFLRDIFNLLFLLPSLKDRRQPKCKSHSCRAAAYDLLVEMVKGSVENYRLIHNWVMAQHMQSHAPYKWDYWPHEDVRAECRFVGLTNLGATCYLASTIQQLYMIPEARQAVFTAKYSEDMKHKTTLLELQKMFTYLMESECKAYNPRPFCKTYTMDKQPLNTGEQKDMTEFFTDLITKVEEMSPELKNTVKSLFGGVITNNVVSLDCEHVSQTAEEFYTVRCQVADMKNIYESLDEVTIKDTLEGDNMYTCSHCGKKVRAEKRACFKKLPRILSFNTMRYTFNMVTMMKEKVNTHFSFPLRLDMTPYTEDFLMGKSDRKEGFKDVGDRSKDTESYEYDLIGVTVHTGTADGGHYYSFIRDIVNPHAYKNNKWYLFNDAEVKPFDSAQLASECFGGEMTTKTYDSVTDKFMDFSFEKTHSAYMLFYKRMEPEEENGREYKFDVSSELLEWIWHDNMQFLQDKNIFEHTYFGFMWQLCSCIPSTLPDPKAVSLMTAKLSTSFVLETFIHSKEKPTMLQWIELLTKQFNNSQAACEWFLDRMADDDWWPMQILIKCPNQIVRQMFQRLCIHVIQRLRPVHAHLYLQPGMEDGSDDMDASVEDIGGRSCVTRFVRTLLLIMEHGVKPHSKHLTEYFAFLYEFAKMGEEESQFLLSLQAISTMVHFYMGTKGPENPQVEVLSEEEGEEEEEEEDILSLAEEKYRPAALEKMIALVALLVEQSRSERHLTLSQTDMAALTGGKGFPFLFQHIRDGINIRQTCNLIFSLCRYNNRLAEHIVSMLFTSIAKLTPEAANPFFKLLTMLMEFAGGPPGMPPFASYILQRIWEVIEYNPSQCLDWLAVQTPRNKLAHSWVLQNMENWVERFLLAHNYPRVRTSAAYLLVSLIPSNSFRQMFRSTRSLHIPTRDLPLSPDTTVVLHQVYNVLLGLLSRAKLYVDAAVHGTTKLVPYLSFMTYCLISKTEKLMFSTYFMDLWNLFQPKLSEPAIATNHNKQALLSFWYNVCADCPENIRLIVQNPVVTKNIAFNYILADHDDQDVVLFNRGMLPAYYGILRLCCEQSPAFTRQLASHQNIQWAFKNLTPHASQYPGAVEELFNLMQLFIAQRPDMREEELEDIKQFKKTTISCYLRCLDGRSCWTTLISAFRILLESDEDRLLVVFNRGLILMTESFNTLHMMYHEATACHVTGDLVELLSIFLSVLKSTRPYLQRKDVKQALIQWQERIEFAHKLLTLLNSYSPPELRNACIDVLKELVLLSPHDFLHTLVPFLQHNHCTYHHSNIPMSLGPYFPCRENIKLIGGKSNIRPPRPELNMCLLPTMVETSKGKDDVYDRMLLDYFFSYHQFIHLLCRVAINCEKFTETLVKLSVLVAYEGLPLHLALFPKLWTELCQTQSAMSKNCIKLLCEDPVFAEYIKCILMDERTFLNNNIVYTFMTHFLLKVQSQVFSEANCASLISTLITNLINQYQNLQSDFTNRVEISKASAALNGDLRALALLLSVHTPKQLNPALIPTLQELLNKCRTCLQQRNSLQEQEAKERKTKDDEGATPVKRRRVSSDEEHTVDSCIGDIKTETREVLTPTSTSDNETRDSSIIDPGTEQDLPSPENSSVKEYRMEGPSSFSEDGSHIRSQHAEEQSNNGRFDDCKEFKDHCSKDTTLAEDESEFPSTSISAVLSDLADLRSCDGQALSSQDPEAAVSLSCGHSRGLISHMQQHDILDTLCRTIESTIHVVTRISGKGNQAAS
substance,measurement,setting,value
adipsin,TMT signal-to-noise ratio,[1],222.079
same,TMT signal-to-noise ratio,[2],361.157
same,TMT signal-to-noise ratio,[3],1044.49

# — US20210063414A1, “METHODS FOR PREVENTING AND/OR TREATING BONE LOSS CONDITIONS BY MODULATING IRISIN” (Dana-Farber Cancer Institute, Inc., priority 2018, published 2021)
